Holding throughout (assay): ELISA
In general terms: An ELISA detects its analyte on a solid surface through an enzyme-linked reagent.

The target of experiment [1] is T1, human EphA1 extracellular region-SEAP-His protein (human, UniProt P21709 26-547).
T1 construct: extracellular domain; also called hEphA1-SEAP-His
T1 sequence (looked up): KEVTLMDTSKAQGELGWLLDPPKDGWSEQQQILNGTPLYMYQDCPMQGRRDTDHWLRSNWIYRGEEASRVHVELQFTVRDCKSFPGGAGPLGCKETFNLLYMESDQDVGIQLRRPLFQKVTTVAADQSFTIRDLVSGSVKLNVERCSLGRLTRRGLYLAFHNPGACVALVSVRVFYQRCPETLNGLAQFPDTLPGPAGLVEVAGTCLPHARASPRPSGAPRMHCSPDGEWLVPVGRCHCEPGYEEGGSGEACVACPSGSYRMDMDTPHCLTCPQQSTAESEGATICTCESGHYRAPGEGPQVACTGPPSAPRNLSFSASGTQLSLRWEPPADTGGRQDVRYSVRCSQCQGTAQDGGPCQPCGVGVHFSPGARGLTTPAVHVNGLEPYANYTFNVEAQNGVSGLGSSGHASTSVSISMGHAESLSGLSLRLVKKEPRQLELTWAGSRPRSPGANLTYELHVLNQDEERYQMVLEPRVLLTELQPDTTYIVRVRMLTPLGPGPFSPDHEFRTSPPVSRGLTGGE

Experiment [2] concerns the target T2, human EphA4 extracellular region-SEAP-His protein (human, UniProt P54764 20-547).
T2 construct: also called hEphA4-SEAP-His

The target of experiment [3] is T3, human EphA6 extracellular region-SEAP-His protein (human, UniProt Q9UF33 23-550).
T3 construct: extracellular domain; also called hEphA6-SEAP-His
T3 sequence (looked up): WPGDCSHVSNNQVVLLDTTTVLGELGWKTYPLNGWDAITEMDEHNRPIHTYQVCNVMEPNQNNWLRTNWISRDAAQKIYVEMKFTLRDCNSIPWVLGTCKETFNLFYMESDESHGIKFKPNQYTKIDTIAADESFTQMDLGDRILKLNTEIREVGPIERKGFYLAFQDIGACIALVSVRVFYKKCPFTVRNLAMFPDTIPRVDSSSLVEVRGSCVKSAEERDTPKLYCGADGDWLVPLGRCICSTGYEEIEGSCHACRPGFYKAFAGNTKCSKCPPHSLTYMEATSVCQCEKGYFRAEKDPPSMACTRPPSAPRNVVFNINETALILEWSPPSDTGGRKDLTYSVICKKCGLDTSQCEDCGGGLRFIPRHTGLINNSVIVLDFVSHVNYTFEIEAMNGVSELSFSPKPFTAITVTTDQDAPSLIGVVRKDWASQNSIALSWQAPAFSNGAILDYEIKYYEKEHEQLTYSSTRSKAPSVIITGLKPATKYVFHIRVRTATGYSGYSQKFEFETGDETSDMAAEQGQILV

Another experiment addresses SEAP-His (UniProt P05187 23-511).
Experiment [4] has as its target T4, human EphB2 extracellular region-SEAP-His protein (human, UniProt P29323 19-543).
T4 construct: extracellular domain; also called hEphB2-SEAP-His
T4 sequence (looked up): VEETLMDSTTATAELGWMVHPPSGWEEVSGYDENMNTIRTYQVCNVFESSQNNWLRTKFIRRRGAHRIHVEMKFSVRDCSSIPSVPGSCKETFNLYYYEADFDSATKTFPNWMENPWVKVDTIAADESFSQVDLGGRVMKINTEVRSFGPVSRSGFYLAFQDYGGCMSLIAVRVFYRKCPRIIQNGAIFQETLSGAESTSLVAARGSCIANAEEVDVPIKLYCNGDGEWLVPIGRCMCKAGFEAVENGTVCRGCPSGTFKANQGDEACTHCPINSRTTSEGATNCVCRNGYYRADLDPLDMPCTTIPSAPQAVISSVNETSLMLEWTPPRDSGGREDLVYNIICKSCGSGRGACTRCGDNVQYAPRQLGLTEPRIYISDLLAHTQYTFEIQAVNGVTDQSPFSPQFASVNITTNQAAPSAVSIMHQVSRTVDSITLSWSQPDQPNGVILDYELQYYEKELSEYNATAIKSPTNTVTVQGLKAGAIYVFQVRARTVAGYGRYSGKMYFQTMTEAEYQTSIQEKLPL

Experiment [5] has as its target T5, human EphB3 extracellular region-SEAP-His protein (human, UniProt P54753 34-559).
T5 construct: extracellular domain; also called hEphB3-SEAP-His
T5 sequence (looked up): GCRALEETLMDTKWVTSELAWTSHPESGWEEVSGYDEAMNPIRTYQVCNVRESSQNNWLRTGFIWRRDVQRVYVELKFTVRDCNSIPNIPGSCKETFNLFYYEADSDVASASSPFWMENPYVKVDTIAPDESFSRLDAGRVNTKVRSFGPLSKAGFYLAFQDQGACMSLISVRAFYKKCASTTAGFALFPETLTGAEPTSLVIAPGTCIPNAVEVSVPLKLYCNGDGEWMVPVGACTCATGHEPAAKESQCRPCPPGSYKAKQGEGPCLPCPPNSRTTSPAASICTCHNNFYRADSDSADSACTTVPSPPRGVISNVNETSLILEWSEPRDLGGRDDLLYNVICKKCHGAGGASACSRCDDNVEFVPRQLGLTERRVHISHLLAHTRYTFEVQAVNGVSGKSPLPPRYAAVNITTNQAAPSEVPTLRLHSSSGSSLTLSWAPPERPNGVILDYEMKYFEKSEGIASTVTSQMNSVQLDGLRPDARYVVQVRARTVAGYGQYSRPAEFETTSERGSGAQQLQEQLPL

The values that follow come from patent publication US20190077860A1 (EISAI R AND D MANAGEMENT, published 2019).

SEAP-His, sequence (P05187 23-511): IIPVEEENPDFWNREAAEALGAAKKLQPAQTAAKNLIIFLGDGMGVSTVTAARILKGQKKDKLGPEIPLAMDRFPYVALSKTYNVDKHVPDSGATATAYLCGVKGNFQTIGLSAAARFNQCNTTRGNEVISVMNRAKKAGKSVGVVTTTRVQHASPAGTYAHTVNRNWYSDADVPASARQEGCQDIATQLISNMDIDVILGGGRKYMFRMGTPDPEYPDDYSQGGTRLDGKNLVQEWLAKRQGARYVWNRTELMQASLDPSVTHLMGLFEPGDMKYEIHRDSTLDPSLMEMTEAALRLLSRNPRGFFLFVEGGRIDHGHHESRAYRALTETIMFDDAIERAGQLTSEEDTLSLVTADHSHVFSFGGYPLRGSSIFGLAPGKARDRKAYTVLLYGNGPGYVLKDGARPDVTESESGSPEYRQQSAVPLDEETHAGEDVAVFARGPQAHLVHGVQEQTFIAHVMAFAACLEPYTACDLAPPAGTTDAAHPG
T2 sequence (P54764 20-547): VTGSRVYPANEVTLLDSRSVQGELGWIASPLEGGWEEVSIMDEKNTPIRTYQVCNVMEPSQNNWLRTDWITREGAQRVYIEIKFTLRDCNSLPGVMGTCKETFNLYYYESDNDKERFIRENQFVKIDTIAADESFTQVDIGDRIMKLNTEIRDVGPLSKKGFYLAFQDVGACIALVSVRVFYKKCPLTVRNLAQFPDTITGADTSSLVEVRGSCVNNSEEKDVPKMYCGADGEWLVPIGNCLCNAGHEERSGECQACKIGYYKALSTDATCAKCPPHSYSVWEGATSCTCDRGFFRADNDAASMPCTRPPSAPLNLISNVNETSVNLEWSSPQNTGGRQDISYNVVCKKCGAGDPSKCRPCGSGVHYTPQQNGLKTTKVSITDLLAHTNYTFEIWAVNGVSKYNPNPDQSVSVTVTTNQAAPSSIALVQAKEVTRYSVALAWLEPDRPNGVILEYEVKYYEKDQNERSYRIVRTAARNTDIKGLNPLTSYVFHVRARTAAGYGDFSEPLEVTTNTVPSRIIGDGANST

B1: humanized antibody No. 90 (antibody, human IgG1, kappa)
heavy: QVQLVQSGSELKKPGASVKVSCKASGYTFTDYSMHWVRQAPGQGLEWMGWINTETGEPTYADDFKGRFVFSLDTSVSTAYLQISSLKAEDTAVYYCARIPLYYYGSRYWYFDVWGQGTTVTVSSASTKGPSVFPLAPSSKSTSGGTAALGCLVKDYFPEPVTVSWNSGALTSGVHTFPAVLQSSGLYSLSSVVTVPSSSLGTQTYICNVNHKPSNTKVDKRVEPKSCDKTHTCPPCPAPPAAAPSVFLFPPKPKDTLMISRTPEVTCVVVDVSHEDPEVQFNWYVDGVEVHNAKTKPREEQFNSTFRVVSVLTVVHQDWLNGKEYKCKVSNKGLPAPIEKTISKTKGQPREPQVYTLPPSREEMTKNQVSLTCLVKGFYPSDIAVEWESNGQPENNYKTTPPMLDSDGSFFLYSKLTVDKSRWQQGNVFSCSVMHEALHNHYTQKSLSLSPG
light: DIQMTQSPSSLSASVGDRVTITCRASENIYRNLAWYQQKPGKAPQLLLYAATNLADGVPSRFSGSGSGTDYTLTISSLQPEDFATYYCQHFWGTPWTFGQGTKVEIKRTVAAPSVFIFPPSDEQLKSGTASVVCLLNNFYPREAKVQWKVDNALQSGNSQESVTEQDSKDSTYSLSSTLTLSKADYEKHKVYACEVTHQGLSSPVTKSFNRGEC
notes: human Ig kappa; also called L1-6/HK1
Take B1: the “A450 as % of hEphA4-SEAP-His” value came out at 5.1% in experiment [1]; 100% in experiment [2]; 7.6% in experiment [3]; 5.2% with SEAP-His; 5.9% in experiment [4]; 5.1% in experiment [5].

B2: humanized antibody No. 140 (antibody, human IgG2)
heavy: QVQLVQSGSELKKPGASVKVSCKASGYTFTDYSMHWVRQAPGQGLKWMGWINTETGEPTYAQGFTGRFVFSLDTSVSTAYLQISSLKAEDTAVYYCARIPLYYYGSRYWYFDVWGQGTTVTVSSASTKGPSVFPLAPSSRSTSESTAALGCLVKDYFPEPVTVSWNSGALTSGVHTFPAVLQSSGLYSLSSVVTVPSSNFGTQTYTCNVDHKPSNTKVDKTVERKSCVECPPCPAPPAAAPSVFLFPPKPKDTLMISRTPEVTCVVVDVSHEDPEVQFNWYVDGVEVHNAKTKPREEQFNSTFRVVSVLTVVHQDWLNGKEYKCKVSNKGLPAPIEKTISKTKGQPREPQVYTLPPSREEMTKNQVSLTCLVKGFYPSDIAVEWESNGQPENNYKTTPPMLDSDGSFFLYSKLTVDKSRWQQGNVFSCSVMHEALHNHYTQKSLSLSPG
light: DIQMTQSPSSLSASVGDRVTITCRASENIYRNLAWYQQKPGKAPKLLVYAATNLADGVPSRFSGSGSGTDYTLTISSLQPEDFATYYCQHFWGTPWTFGQGTKVEIKRTVAAPSVFIFPPSDEQLKSGTASVVCLLNNFYPREAKVQWKVDNALQSGNSQESVTEQDSKDSTYSLSSTLTLSKADYEKHKVYACEVTHQGLSSPVTKSFNRGEC
notes: human Ig kappa; also called L1-4/HA2
For B2, the “A450 as % of hEphA4-SEAP-His” value in experiment [1] amounted to 5.5%; in experiment [2], 100%; in experiment [3], 10.8%; with SEAP-His, 5.4%; in experiment [4], 5.3%; in experiment [5], 5.4%.

B3: humanized antibody No. 92 (antibody, human IgG1, kappa)
heavy: QIQLVQSGSELKKPGASVKVSCKASGYTFTDYSMHWVRQAPGQGLKWMGWINTETGEPTYADDFKGRFVFSLDTSVSTAYLQISSLKAEDTAVYYCARIPLYYYGSRYWYFDVWGQGTTVTVSSASTKGPSVFPLAPSSKSTSGGTAALGCLVKDYFPEPVTVSWNSGALTSGVHTFPAVLQSSGLYSLSSVVTVPSSSLGTQTYICNVNHKPSNTKVDKRVEPKSCDKTHTCPPCPAPPAAAPSVFLFPPKPKDTLMISRTPEVTCVVVDVSHEDPEVQFNWYVDGVEVHNAKTKPREEQFNSTFRVVSVLTVVHQDWLNGKEYKCKVSNKGLPAPIEKTISKTKGQPREPQVYTLPPSREEMTKNQVSLTCLVKGFYPSDIAVEWESNGQPENNYKTTPPMLDSDGSFFLYSKLTVDKSRWQQGNVFSCSVMHEALHNHYTQKSLSLSPG
light: DIQMTQSPSSLSASVGDRVTITCRASENIYRNLAWYQQKPGKAPQLLLYAATNLADGVPSRFSGSGSGTDYTLTISSLQPEDFATYYCQHFWGTPWTFGQGTKVEIKRTVAAPSVFIFPPSDEQLKSGTASVVCLLNNFYPREAKVQWKVDNALQSGNSQESVTEQDSKDSTYSLSSTLTLSKADYEKHKVYACEVTHQGLSSPVTKSFNRGEC
notes: human Ig kappa; also called L1-6/HK4
B3: the “A450 as % of hEphA4-SEAP-His” value in experiment [1] is 7%; in experiment [2] it was 100%; in experiment [3], 9.6%; in the experiment with SEAP-His, 6.5%; in experiment [4], 6.6%; in experiment [5] it was 6.9%.

B4: humanized antibody No. 91 (antibody, human IgG1, kappa)
heavy: QVQLVQSGSELKKPGASVKVSCKASGYTFTDYSMHWVRQAPGQGLKWMGWINTETGEPTYADDFKGRFVFSLDTSVSTAYLQISSLKAEDTAVYYCARIPLYYYGSRYWYFDVWGQGTTVTVSSASTKGPSVFPLAPSSKSTSGGTAALGCLVKDYFPEPVTVSWNSGALTSGVHTFPAVLQSSGLYSLSSVVTVPSSSLGTQTYICNVNHKPSNTKVDKRVEPKSCDKTHTCPPCPAPPAAAPSVFLFPPKPKDTLMISRTPEVTCVVVDVSHEDPEVQFNWYVDGVEVHNAKTKPREEQFNSTFRVVSVLTVVHQDWLNGKEYKCKVSNKGLPAPIEKTISKTKGQPREPQVYTLPPSREEMTKNQVSLTCLVKGFYPSDIAVEWESNGQPENNYKTTPPMLDSDGSFFLYSKLTVDKSRWQQGNVFSCSVMHEALHNHYTQKSLSLSPG
light: DIQMTQSPSSLSASVGDRVTITCRASENIYRNLAWYQQKPGKAPQLLLYAATNLADGVPSRFSGSGSGTDYTLTISSLQPEDFATYYCQHFWGTPWTFGQGTKVEIKRTVAAPSVFIFPPSDEQLKSGTASVVCLLNNFYPREAKVQWKVDNALQSGNSQESVTEQDSKDSTYSLSSTLTLSKADYEKHKVYACEVTHQGLSSPVTKSFNRGEC
notes: human Ig kappa; also called L1-6/HK2
As for B4, the “A450 as % of hEphA4-SEAP-His” value in experiment [1] came out at 5.8%; in experiment [2] it was 100%; in experiment [3], 8.8%; with SEAP-His, 6.4%; in experiment [4], 7%; in experiment [5], 7%.
